{"source": "paper PMC9645528", "about": "“Structural and functional basis of mammalian microRNA biogenesis by Dicer”", "binders": {"B1": {"name": "42bp stem-loop (structured_RNA)", "RNA": "AGAGGAGAGGGACAAUAGAGGAGAGGGACAAUCAUAAAGGCCGCAAGGCCUUUAUGAUUGUCCCUCUCCUCUAUUGUCCCUCUCCUCUUU"}, "B2": {"name": "30bp stem-loop (structured_RNA)", "RNA": "AGAGGAGAGGGACAAUCAUAAAGGCCACUCGCAAGAGUGGCCUUUAUGAUUGUCCCUCUCCUCUUU"}}, "key": {"[1]": {"target": "DicerO (oocyte isoform lacking HEL1) (Mus musculus, UniProt Q8R418-2 1-1678)", "sequence (Q8R418 other isoform, or with tags, fused parts or gaps)": "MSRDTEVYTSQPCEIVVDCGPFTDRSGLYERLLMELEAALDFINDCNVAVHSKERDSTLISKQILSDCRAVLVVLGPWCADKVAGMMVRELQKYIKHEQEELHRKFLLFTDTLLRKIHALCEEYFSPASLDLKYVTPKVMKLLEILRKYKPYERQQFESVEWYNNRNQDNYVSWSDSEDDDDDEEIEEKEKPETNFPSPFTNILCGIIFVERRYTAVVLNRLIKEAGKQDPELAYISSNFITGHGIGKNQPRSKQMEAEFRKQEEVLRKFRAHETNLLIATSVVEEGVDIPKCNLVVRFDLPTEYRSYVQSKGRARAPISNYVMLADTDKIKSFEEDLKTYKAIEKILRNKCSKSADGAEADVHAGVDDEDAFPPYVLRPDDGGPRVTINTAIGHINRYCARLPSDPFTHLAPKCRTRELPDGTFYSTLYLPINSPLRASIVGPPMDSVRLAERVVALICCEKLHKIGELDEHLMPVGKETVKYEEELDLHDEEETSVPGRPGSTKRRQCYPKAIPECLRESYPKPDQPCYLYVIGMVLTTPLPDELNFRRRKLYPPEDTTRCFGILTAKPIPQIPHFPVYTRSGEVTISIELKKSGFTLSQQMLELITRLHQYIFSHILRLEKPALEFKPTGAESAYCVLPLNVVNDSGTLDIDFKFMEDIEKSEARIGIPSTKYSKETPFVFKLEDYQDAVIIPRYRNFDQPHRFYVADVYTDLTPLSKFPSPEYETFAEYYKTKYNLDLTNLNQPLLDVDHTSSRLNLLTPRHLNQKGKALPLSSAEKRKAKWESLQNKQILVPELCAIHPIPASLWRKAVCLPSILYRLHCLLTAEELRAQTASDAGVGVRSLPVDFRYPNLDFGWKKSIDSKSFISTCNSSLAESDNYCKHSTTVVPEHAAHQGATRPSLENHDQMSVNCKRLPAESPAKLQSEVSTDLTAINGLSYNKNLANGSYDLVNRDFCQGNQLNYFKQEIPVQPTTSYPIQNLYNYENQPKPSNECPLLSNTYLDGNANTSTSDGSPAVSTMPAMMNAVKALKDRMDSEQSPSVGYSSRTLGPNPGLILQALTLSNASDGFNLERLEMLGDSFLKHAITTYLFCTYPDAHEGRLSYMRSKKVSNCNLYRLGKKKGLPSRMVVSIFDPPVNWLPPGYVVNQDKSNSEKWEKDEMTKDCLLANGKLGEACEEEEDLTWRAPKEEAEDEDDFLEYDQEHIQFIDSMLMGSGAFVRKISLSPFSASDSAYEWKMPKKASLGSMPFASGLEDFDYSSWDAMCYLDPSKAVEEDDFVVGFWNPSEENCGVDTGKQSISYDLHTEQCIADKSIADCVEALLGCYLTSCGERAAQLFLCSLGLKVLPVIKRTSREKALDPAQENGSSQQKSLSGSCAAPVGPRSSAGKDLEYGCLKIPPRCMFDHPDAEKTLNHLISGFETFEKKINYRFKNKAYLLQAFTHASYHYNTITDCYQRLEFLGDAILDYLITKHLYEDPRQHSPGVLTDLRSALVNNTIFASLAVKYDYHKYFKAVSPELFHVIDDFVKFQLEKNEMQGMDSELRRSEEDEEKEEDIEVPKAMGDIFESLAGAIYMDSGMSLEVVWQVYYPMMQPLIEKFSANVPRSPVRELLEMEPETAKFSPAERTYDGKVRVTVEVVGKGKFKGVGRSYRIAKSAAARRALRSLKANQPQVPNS", "experiment": "EMSA; EMSA conditions not in the material; protein storage/SEC buffer 50 mM Tris pH 8.0, 150 mM NaCl, 1 mM DTT, 2 mM MgCl2 (2 mM CaCl2 for WT Dicer structural work)", "conditions": "protein: recombinant, tags: N-term TwinStrep-HA-TEV, C-term TEV-2xFLAG-8xHis, hairpin, GCAA tetraloop, 3' overhang UU"}, "Dicer (full-length)": {"target": "Dicer (full-length) (Mus musculus, UniProt Q8R418 1-1916)", "sequence (Q8R418 whole entry)": "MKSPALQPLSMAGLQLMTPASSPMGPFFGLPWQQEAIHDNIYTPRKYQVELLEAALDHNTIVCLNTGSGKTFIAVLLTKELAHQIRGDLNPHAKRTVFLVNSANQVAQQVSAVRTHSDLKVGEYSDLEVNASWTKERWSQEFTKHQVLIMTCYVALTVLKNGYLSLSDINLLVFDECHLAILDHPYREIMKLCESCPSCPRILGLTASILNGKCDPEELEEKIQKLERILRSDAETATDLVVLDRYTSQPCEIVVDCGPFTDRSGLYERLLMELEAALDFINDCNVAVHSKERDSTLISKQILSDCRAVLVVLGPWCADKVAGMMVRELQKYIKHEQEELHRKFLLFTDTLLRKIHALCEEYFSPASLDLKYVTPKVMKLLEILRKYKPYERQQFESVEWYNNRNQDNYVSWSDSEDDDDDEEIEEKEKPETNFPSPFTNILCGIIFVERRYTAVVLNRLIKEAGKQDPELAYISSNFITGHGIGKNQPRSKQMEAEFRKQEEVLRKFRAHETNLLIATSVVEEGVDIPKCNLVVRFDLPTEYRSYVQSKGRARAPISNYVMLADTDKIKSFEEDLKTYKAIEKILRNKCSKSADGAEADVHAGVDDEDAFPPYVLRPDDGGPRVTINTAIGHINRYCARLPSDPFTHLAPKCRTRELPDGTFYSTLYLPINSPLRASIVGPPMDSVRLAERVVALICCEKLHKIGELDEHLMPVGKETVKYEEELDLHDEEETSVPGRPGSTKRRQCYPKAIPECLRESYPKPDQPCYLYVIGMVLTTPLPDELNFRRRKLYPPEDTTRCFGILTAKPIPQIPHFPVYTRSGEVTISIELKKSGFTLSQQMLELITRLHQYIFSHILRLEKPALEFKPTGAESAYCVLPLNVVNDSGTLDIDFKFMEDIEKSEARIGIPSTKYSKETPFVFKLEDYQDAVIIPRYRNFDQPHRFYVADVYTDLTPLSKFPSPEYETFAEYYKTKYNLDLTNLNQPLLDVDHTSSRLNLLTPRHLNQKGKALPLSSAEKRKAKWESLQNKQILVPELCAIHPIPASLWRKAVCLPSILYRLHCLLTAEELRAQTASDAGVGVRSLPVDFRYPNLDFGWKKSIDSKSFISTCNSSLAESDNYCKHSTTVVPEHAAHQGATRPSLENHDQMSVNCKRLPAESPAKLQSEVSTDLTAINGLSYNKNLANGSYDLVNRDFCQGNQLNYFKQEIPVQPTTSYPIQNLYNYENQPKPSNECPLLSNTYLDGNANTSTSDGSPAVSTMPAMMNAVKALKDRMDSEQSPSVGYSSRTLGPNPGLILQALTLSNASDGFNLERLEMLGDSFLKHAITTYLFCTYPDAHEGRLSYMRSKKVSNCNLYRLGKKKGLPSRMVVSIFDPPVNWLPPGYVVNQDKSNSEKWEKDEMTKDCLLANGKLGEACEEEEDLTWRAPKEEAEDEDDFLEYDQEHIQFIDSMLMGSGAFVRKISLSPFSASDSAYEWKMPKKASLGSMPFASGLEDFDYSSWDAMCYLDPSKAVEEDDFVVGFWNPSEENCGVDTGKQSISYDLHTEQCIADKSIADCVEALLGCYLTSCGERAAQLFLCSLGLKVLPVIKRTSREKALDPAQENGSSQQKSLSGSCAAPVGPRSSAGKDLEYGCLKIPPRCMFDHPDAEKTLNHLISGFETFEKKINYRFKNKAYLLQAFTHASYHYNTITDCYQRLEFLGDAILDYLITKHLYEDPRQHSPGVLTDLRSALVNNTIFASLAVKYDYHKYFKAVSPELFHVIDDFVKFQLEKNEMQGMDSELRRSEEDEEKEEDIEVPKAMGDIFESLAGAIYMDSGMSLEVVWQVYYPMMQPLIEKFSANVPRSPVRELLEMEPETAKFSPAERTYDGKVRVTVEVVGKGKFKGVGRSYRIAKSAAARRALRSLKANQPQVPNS", "experiment": "EMSA; EMSA conditions not in the material; protein storage/SEC buffer 50 mM Tris pH 8.0, 150 mM NaCl, 1 mM DTT, 2 mM MgCl2 (2 mM CaCl2 for WT Dicer structural work)", "conditions": "protein: recombinant, tags: N-term TwinStrep-HA-TEV, C-term TEV-2xFLAG-8xHis, hairpin, GCAA tetraloop, 3' overhang UU"}}, "data": [{"binder": "B1", "values": [{"measurement": "Kd", "setting": "[1]; 42 bp stem", "result": "55 ± 4", "unit": "nM"}, {"measurement": "Kd", "setting": "Dicer (full-length); 42 bp stem", "result": "115 ± 20", "unit": "nM"}]}, {"binder": "B2", "values": [{"measurement": "Kd", "setting": "[1]; 30 bp stem", "result": "79 ± 7", "unit": "nM"}, {"measurement": "Kd", "setting": "Dicer (full-length); 30 bp stem", "result": "120 ± 27", "unit": "nM"}]}]}
